# In patent publication US8710195B2, “Fluorescent proteins” (JNC Corporation, priority 2003, dated 2014):
# Tests used:
# [1] = Substrate specificity, chemiluminescence with h-CTZ; format: biochemical; conditions: compared with coelenterazine
# Experimental: bFP-aq, e-bFP-aq, and h-bFP-aq (0.25 μg) prepared in Example 2 were individually dissolved in 100 μl of 50 mM Tris-HCl (pH 7.6) containing 5 mM dithiothreitol (DTT) and 1 μg/μl coelenterazine and its analog were added to each solution. Each chemiluminescence in the steady reaction state (after 10 min) was measured with a luminometer (AB-2200; manufactured by Atto Co., Ltd.).
# [2] = Recoverability of fluorescence-generating ability after heating at 90° C.; format: physicochemical; conditions: heated at 90° C. for 3 min
# Experimental: The thermal stability of bFP-aq prepared in Examples 2 was compared with that of gFP-aq prepared Example 3. The solution containing bFP-aq or gFP-aq with a protein concentration of 0.26 mg/ml was heated at 90° C. for 3 min and allowed to stand at 24° C. Subsequently, each fluorescence generation intensity was measured with a spectrofluorometer.
# [3] = when calcium ions bind; cited from earlier work
Compound,Quality as luminescent substrate of the bFPs [1],Ability to emit light due to the addition of calcium ions after heat treatment [2],maximum wave length of blue light emission [3]
O=c1c(Cc2ccccc2)nc2c(Cc3ccccc3)[nH]c(-c3ccc(O)cc3)cn1-2 [h-coelenterazine],serves as a luminescent substrate better than coelenterazine,,
aequorin,,completely been lost,465-470 nm
